Measured values reported in patent publication US20220089755A1 (COMMISSARIAT A L ENERGIE ATOMIQUE ET AUX ENERGIES …, published 2022).

Tests used:
[1] = target: T1, endothelin receptor subtype A (ETA-R) expressed on the surface of Gli-7 glioblastoma cells (human, UniProt P25101 21-427); assay: flow cytometry on Gli-7 glioblastoma cells
T1 construct: whole, on cells; also called ETA-R on Gli-7; ETAR on glioblastoma cells
T1 sequence (looked up): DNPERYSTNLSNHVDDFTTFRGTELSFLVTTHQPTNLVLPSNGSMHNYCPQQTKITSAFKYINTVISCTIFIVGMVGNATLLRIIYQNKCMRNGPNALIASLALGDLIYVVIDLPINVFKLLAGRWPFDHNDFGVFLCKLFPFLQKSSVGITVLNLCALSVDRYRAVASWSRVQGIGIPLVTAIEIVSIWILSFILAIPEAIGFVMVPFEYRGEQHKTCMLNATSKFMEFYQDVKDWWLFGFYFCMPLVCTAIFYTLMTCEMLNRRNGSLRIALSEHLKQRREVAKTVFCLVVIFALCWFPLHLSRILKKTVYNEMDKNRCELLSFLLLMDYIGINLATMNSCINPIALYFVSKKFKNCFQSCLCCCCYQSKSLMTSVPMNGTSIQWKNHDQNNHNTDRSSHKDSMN

[2] = target: T2, endothelin receptor subtype A (ETA-R) expressed on stably transfected CHO cells (CHO-ETAR) (UniProt P25101 21-427, limits assumed); assay: flow cytometry on CHO-ETAR cells, apparent Kd, one-site fit, with or without 100 nM ET1
T2 construct: whole, on cells; also called endothelin type A receptor
T2 sequence (looked up): T1 sequence (looked up)
Experimental: The fluorescence is quantified by flow cytometry on an FACSCalibur™ (BD Bioscience). A range of concentrations of antibodies lying between, at a maximum, 1 μM and, at a minimum, […] was incubated for 2 hours at 4° C. in the presence or not of 100 nM ET1 (preincubated for 30 minutes at 4° C.). At 90% confluence, the cells are detached in the presence of versene and then aliquoted in tubes (300 μl/300,000 cells) in the presence of a saturation buffer (PBS-SNC 5%-BSA 0.1%) stored at 4° C. After three washes in PBS buffer, 300 μl of secondary antibody labeled with Alexa Fluor™ 488 (AF-488) diluted to 1/400 was added and incubated for 60 minutes at 4° C. (Goat anti-mouse IgG, Invitrogen-ref A10684). For each antibody concentration point, after three washes in PBS, 10,000 cells were counted with flow cytometry.
The data were analysed in the GraphPad Prism software and the curves modelled according to the parameter: a specific binding site. […] The binding of RA63 was therefore not modified in the presence of ET1.

Kd [1]: ~15 nM
Kd [2]: ~0.5 nM
B1: Rendomab-A63 (antibody, mouse IgG2b, V domains shown)
VH: EVQLVESGGGLVQPKGSLKLSCAASGFTFNIYAMNWIRQAPGKGLEWIARIRSKSNNYATYYADSVKDRFTISRDDSQNMVYLQMNNLKTEDTAMYYCVSSYYSGSFFAYWGQGTLVTVSA
VL: DVLMTQTPLSLPVSLGDQASISCRSSQSIVYSNGKIYLEWYLQKPGQSPKLLIYKVSNRFSGVPDRFSGSGSGTDFTLKISRVEAEDLGVYYCFQGSHLPLTFGAGTKLELKR
notes: also called RA63; monoclonal murine antibody from the hybridoma CNCM I-5250
